Reference: patent US20170240613A1 (REGENTS OF THE UNIVERSITY OF COLORADO A BODY CORPORATE, published 2017)

Experiments:
[1] = target: T1, human CD112-Fc fusion protein (human; mouse, UniProt Q92692 32-360); test: Biacore 3000, concentration series of CD112R protein over immobilized CD112
T1 construct: extracellular domain; Used soluble for cell staining, coated on beads, coated on plates and amine-coupled to a CM5 chip; the Biacore text only says CD112; also called CD112-Ig; CD112 fusion protein; not shown: constant region (Fc) of mouse IgG2a
T1 sequence (looked up): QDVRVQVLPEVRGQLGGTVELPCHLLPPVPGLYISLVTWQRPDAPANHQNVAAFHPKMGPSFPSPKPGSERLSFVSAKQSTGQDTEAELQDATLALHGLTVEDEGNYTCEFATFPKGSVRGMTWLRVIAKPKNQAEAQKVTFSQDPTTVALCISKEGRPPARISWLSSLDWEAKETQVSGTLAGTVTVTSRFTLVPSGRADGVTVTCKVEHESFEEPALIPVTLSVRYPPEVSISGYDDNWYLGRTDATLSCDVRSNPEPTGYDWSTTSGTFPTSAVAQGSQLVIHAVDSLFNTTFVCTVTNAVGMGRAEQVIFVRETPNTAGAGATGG
Text: (§1) FIG. 3D depicts a graph showing BIAcore3000 analysis of CD112R binding to CD112. A series of concentrations of CD112R protein was used to measure the binding kinetics with immobilized CD112.
(§2) All bio sensor experiments were run on a Biacore 3000 instrument (GE Healthcare, Piscataway, N.J., USA). PBS with 0.005% P20 buffer (Gibco) was used as the running buffer for both the immobilization and kinetics experiments. Amine-coupling chemistry was used to immobilize protein FLAG, CD112 and CD155 to a CM5 sensor chip surface at […]. Kinetic experiments were carried out for three different ligands using three different concentration series: 4, 12, 36, 111, 333 nM of CD112R; 9000, 3000, 1000, 333, 111 nM TGIT; 9000, 3000, 1000, 333, 111 nM PVR L3. All samples were diluted in PBS buffer and were injected for 3 minutes across the surface at a flowrate of 20 flL/min and the dissociation of analyte from the surface-bound ligands was monitored for 5 minutes. All analyte concentrations were performed in duplicate and an unmodified reference flow cell was used to correct for instrument drift and/or noise. Buffer blanks were used to double-reference the obtained kinetic data. Raw sensogram data was processed and fit using the Scrubber software package (Version 2.0b, BioLogic Software, Campbell, Australia; http_www_biologic_com_au).

[2] = target: T1, human CD112-Fc fusion protein; test: SPR, Biacore 3000, CD112 amine-coupled to CM5 chip, CD112R as analyte at 4-333 nM
Text: as §1, §2

[3] = target: T2, human CD112R (form used in Example 18 not stated) (human), Q6DKI7; test: flow cytometry, CD112-Fc staining of human CD112R; panel '+2H6'
T2 chain: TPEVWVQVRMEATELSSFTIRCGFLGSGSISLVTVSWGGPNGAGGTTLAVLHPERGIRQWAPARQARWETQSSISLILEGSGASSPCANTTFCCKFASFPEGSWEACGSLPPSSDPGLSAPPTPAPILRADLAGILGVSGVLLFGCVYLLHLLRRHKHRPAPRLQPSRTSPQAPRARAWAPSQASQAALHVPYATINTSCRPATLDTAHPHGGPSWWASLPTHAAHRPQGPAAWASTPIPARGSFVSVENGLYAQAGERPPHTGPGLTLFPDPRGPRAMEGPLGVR

[4] = target: T2, human CD112R (form used in Example 18 …); test: flow cytometry, CD112-Fc staining of human CD112R; panel 'None'
[5] = target: T2, human CD112R (form used in Example 18 …); test: flow cytometry, CD112-Fc staining of human CD112R; panel '+4-4'
[6] = target: T2, human CD112R (form used in Example 18 …); test: flow cytometry, CD112-Fc staining of human CD112R; panel '+4-5'
[7] = target: T1, human CD112-Fc fusion protein; test: competition on coated CD112 (beads, flow cytometry): staining by CD112R protein in the presence of rising CD226 protein
Text: FIG. 3F depicts graphs showing the competitive binding assay for CD112 among CD112R, CD226, and TIGIT. Coated CD112 was stained by CD112R protein in the presence of different concentration of TIGIT or CD226 protein; on the other hand, coated CD112 were stained by CD226 protein, in the presence of different concentration of CD112R protein.
CD112 is known to interact with both CD226 and TIGIT, though the latter interaction is relatively weak (Bottino et al., 2003; Stanietsky et al., 2009; Yu et al., 2009). It was investigated whether these two counter receptors compete with CD112R for CD112 interaction. CD112 protein was coated on beads, and stained with CD112R protein in the presence of different concentration of TIGIT or CD226 protein. Inclusion of TIGIT had little effect on disrupting this interaction, while CD226 was a good inhibitor of the CD112-CD112R binding (FIG. 3F). […] Because of the weak interaction between CD112 and TIGIT, as well as limited coated CD112 protein on beads, binding between these two molecules by flow cytometry was not observed. […] This conclusion was further supported by the studies that a CD112 mAb, clone TX31, blocked the binding of CD112 to both CD112R and CD226 (FIG. 4B and FIG. 8).

[8] = target: T3, mouse CD112 on RMA-S cells (RMA-S/mCD112) (mouse, UniProt P32507 32-530); test: flow cytometry, RMA-S/mCD112 cells against control RMA-S cells
T3 construct: whole, on cells; also called mCD112 transfectants; RMA-S/mCD112 cells
T3 sequence (looked up): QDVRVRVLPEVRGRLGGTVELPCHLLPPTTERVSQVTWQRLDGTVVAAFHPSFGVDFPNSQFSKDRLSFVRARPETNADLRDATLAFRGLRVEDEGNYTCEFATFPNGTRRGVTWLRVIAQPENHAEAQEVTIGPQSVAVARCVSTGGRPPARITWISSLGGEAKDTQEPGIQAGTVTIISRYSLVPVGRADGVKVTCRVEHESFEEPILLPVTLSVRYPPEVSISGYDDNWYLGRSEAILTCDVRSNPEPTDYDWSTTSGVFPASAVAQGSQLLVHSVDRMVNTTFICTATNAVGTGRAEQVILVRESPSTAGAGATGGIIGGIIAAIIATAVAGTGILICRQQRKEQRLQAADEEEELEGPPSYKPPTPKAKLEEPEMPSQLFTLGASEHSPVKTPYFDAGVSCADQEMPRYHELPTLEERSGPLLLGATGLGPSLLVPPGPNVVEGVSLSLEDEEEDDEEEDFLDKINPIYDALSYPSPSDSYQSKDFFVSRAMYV
Text: FIG. 3E depicts graphs showing that the CD112R/CD112 interaction was conserved in mice. RMA-S/mCD112 cells (blue), a mouse lymphoma cell line stably expressing mCD112, or control RMA-S cells (red) were stained with mouse CD112R-Fc, mouse CD226-Fc or mouse TIGIT-Fc respectively.

B1: human CD112R-mFc protein (extracellular domain of human CD112R fused to mouse IgG2a constant region) (Fc fusion)
chain: TPEVWVQVRMEATELSSFTIRCGFLGSGSISLVTVSWGGPNGAGGTTLAVLHPERGIRQWAPARQARWETQSSISLILEGSGASSPCANTTFCCKFASFPEGSWEACGSLPPSSDPGLSARSPRGPTIKPCPPCKCPAPNLLGGPSVFIFPPKIKDVLMISLSPIVTCVVVDVSEDDPDVQISWFVNNVEVHTAQTQTHREDYNSTLRVVSALPIQHQDWMSGKEFKCKVNNKDLPAPIERTISKPKGSVRAPQVYVLPPPEEEMTKKQVTLTCMVTDFMPEDIYVEWTNNGKTELNYKNTEPVLDSDGSYFMYSKLRVEKKNWVERNSYSCSVVHEGLHNHHTTKSFSRTPGK
notes: also called CD112R fusion protein; CD112R protein
Kd [1]: 88.4 nM
Kd [2]: 88 nM

B2: human CD112-Fc fusion protein, Q92692 32-360 (Fc fusion, UniProt Q92692 32-360, looked up, not shown: a dimerising Fc or GST)
chain: QDVRVQVLPEVRGQLGGTVELPCHLLPPVPGLYISLVTWQRPDAPANHQNVAAFHPKMGPSFPSPKPGSERLSFVSAKQSTGQDTEAELQDATLALHGLTVEDEGNYTCEFATFPKGSVRGMTWLRVIAKPKNQAEAQKVTFSQDPTTVALCISKEGRPPARISWLSSLDWEAKETQVSGTLAGTVTVTSRFTLVPSGRADGVTVTCKVEHESFEEPALIPVTLSVRYPPEVSISGYDDNWYLGRTDATLSCDVRSNPEPTGYDWSTTSGTFPTSAVAQGSQLVIHAVDSLFNTTFVCTVTNAVGMGRAEQVIFVRETPNTAGAGATGG
1 subset (share of events in the gate drawn over the histogram) [3]: 4.26
1 subset (share of events in the gate drawn over the histogram) [4]: 11.2
1 subset (share of events in the gate drawn over the histogram) [5]: 13.8
1 subset (share of events in the gate drawn over the histogram) [6]: 12.8

B3: human CD226-Fc fusion protein (Fc fusion, UniProt Q15762 19-254, looked up)
chain: EEVLWHTSVPFAENMSLECVYPSMGILTQVEWFKIGTQQDSIAIFSPTHGMVIRKPYAERVYFLNSTMASNNMTLFFRNASEDDVGYYSCSLYTYPQGTWQKVIQVVQSDSFEAAVPSNSHIVSEPGKNVTLTCQPQMTWPVQAVRWEKIQPRQIDLLTYCNLVHGRNFTSKFPRQIVSNCSHGRWSVIVIPDVTVSDSGLYRCYLQASAGENETFVMRLTVAEGKTDNQYTLFVA
notes: extracellular domain; also called CD226 protein; not shown: constant region (Fc) of mouse IgG2a
binding result [7]: binds

B4: mouse TIGIT-Fc fusion protein (Fc fusion, UniProt P86176 29-148, looked up)
chain: TIDTKRNISAEEGGSVILQCHFSSDTAEVTQVDWKQQDQLLAIYSVDLGWHVASVFSDRVVPGPSLGLTFQSLTMNDTGEYFCTYHTYPGGIYKGRIFLKVQESSDDRNGLAQFQTAPLG
notes: extracellular domain; also called TIGIT protein; not shown: Fc
binding result [8]: no binding
